Data on eleven substances can be found in patent US6713265.

Like-named read-outs stand apart in the source and are kept apart here.

For assay [1], the target named is rat Y4 receptor (rat) (UniProt Q63447). Description: 125I-PYY displacement, COS-7 membranes.
In assay [2] the target is human Y5 receptor (human) (UniProt Q15761). Description: cell-based or functional assay.
Assay [3] deals with rat hypothalamic Y5 receptor (rat) (UniProt Q63634). The assay can be described thus: cell-based or functional assay.
The target of assay [4] is human Y1 receptor (human) (UniProt P25929). The assay can be described thus: 125I-PYY displacement, COS-7 membranes.
In assay [5] the target is human Y2 receptor (human) (UniProt P49146). Description: 125I-PYY displacement, COS-7 membranes.
Assay [6] addresses human Y4 receptor (human) (UniProt P50391). The assay can be described thus: 125I-PYY displacement, COS-7 membranes.
In assay [7] the target is human Y5 receptor (human) (UniProt Q15761). Description: 125I-PYY displacement, COS-7 membranes.
In assay [8] the target is rat hypothalamic Y5 receptor (rat) (UniProt Q63634). The assay can be described thus: 125I-PYY displacement, COS-7 membranes.
The target of assay [9] is rat Y1 receptor (rat) (UniProt P21555). The assay can be described thus: 125I-PYY displacement, COS-7 membranes.
Assay [10] deals with rat Y2 receptor (rat) (UniProt Q9ERC0). Description: 125I-PYY displacement, COS-7 membranes.
For assay [11], the target named is rat hypothalamic Y5 receptor (rat) (UniProt Q63634). Description: 125I-PYY displacement, COS-7 membranes. The source holds these as a separate data set.
Assay [12] has as its target human Y5 receptor (human) (UniProt Q15761). Description: 125I-PYY displacement, COS-7 membranes. The source holds these as a separate data set.
The target is the same in assay [13]. Description: 125I-PYY3-36 displacement, LM(tk-) membranes.
Assay [14] has as its target canine Y5 receptor (canine) (UniProt O62729). Description: 125I-PYY displacement, COS-7 membranes.
Assay [15] has as its target rat hypothalamic Y5 receptor (rat) (UniProt Q63634). The assay can be described thus: 125I-PYY displacement, COS-7 membranes. This is another data set of the same source.
Assay [16] concerns the target human Y5 receptor (human) (UniProt Q15761). Description: 125I-PYY displacement, LM(tk-) membranes.
Assay [17] has as its target rat hypothalamic membranes (NPY/PYY binding sites). Description: 125I-PYY displacement, rat hypothalamic membranes, low-affinity part.
Assay [18] has the same target. Description: 125I-PYY displacement, rat hypothalamic membranes, high-affinity part.
Assay [19] has the same target. The assay can be described thus: 125I-PYY3-36 displacement, rat hypothalamic membranes, low-affinity part.
Assay [20] shares this target. Description: 125I-PYY3-36 displacement, rat hypothalamic membranes, high-affinity part.
The target is the same in assay [21]. The assay can be described thus: 125I-PYY displacement, rat hypothalamic membranes.
Assay [22] has the same target. The assay can be described thus: 125I-PYY3-36 displacement, rat hypothalamic membranes.

salmon PP (peptide), sequence (P69092 whole entry): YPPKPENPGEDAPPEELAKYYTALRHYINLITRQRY
human Y5 receptor (human), sequence (Q15761 other isoform, or with tags, fused parts or gaps): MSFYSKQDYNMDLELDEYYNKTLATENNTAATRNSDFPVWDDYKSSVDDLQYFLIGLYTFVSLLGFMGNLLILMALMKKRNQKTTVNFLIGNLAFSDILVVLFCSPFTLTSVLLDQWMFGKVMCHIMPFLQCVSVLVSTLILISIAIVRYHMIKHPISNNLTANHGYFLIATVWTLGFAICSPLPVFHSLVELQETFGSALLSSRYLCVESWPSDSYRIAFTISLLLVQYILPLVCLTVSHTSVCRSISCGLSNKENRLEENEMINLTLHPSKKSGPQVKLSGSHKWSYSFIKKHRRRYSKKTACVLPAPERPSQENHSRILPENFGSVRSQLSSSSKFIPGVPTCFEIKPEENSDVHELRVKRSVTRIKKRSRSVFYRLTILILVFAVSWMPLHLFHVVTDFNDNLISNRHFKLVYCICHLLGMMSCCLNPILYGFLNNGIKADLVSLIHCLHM
rat Y4 receptor (rat), sequence (Q63447 whole entry): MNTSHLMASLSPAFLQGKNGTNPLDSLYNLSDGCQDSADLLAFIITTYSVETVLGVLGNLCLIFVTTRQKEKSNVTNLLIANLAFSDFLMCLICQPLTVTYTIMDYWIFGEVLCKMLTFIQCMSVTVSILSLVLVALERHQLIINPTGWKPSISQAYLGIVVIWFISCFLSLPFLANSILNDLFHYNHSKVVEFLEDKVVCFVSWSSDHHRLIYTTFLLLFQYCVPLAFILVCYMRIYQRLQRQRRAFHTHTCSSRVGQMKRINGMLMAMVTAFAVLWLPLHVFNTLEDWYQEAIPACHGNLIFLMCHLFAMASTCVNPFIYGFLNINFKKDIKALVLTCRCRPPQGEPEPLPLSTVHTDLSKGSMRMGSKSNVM
rat hypothalamic Y5 receptor (rat), sequence (Q63634 other isoform, or with tags, fused parts or gaps): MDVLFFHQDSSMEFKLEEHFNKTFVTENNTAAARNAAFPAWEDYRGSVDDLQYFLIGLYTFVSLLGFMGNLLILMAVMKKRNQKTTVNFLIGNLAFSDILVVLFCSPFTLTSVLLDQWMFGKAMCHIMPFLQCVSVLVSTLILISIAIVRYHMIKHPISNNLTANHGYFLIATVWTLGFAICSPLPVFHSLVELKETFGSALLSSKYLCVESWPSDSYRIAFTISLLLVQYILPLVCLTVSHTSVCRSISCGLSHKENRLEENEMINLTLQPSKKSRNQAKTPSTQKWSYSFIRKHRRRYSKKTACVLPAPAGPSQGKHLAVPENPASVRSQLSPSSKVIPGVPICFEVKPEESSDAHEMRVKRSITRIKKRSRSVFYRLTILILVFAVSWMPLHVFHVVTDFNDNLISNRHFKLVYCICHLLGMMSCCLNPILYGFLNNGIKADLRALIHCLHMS
human Y4 receptor (human), sequence (P50391 whole entry): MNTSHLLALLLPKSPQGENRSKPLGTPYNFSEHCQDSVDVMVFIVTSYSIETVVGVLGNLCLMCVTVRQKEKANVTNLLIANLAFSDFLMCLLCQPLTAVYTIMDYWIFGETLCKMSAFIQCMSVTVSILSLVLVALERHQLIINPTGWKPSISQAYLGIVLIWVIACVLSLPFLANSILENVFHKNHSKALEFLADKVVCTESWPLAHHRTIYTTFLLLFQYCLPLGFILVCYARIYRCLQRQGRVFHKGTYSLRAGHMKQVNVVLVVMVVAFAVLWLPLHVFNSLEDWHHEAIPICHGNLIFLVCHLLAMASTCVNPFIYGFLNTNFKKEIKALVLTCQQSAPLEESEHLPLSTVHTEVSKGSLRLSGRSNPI
rat Y1 receptor (rat), sequence (P21555 whole entry): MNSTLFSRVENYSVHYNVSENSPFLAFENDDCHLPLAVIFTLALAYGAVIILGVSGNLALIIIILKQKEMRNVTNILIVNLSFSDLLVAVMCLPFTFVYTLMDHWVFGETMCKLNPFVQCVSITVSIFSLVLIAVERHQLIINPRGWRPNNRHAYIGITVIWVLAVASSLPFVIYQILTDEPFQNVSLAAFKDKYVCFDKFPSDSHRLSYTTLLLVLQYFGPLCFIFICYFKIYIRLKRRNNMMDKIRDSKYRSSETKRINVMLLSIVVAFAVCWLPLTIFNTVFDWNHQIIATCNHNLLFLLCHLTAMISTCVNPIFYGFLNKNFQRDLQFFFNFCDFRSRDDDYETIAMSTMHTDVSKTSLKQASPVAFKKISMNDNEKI
human Y2 receptor (human), sequence (P49146 whole entry): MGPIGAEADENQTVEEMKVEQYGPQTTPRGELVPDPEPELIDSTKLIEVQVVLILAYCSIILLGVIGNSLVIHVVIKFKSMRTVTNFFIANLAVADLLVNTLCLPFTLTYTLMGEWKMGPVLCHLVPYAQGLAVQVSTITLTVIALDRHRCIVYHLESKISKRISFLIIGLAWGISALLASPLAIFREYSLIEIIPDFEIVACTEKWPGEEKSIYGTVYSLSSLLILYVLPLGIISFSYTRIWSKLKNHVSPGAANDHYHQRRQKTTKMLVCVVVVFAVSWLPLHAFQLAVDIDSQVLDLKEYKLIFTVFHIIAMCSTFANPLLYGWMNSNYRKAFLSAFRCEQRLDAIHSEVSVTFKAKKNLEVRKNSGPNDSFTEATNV
rat Y2 receptor (rat), sequence (Q9ERC0 entry or part of it): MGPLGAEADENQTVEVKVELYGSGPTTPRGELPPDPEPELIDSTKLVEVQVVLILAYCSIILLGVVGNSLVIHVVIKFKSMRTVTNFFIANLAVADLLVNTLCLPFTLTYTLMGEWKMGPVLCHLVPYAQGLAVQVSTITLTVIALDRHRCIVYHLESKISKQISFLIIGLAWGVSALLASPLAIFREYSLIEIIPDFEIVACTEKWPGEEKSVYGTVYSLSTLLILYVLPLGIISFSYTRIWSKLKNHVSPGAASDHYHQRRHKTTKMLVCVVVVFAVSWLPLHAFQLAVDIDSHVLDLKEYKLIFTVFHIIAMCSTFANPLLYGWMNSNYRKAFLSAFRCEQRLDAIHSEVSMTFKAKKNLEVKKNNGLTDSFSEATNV
human Y1 receptor (human), sequence (P25929 whole entry): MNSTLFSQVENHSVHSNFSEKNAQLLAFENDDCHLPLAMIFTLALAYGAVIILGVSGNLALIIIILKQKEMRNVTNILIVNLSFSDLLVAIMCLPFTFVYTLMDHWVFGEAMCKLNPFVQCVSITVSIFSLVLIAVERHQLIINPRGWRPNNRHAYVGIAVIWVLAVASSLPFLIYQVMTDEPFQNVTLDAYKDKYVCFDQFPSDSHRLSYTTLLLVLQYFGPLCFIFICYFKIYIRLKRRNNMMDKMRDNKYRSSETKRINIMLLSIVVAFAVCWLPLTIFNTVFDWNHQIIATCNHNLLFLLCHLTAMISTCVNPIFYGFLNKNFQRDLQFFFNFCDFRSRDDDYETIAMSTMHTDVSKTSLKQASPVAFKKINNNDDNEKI
canine Y5 receptor (canine), sequence (O62729 other isoform, or with tags, fused parts or gaps): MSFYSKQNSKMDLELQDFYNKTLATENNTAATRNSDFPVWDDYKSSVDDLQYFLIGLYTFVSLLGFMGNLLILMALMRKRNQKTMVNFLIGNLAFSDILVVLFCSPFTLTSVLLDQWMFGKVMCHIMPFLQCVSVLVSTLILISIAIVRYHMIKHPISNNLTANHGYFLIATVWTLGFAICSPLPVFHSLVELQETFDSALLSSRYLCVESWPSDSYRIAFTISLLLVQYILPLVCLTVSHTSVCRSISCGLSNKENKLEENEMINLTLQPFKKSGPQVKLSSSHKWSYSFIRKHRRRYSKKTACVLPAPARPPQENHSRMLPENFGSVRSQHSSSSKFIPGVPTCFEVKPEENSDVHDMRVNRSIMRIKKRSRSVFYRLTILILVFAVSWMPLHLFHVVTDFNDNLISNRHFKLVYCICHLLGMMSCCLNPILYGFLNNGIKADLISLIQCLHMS

The term Ki denotes a measure of affinity in units of concentration, obtained from inhibition or displacement. The low end stands for higher affinity, the high end for lower affinity. On to “rat/human NPY, P01303 29-64 (peptide; C-terminal amide; other documents disagree on this pair)”, for which the inhibition constant Ki in [1] stood at 1.7 nM.

Substance salmon PP (peptide) displayed a % inhibition relative to human NPY, cAMP, LM(tk-) cells in [2] of 96%. In assay [2], this substance showed an EC50, inhibition of forskolin-stimulated cAMP accumulation, LM(tk-) cells of 4.5 nM. In assay [3], this substance showed an EC50, inhibition of forskolin-stimulated cAMP accumulation, 293 cells of 0.92 nM. Also, the inhibitory constant (Ki) was determined as 0.11 nM in assay [4]; 0.17 nM in assay [5]; 3.2 nM in assay [6]; 0.46 nM in [7]; 0.31 nM in assay [8]; 0.3 nM in [9]. In addition, the Ki in assay [10] amounted to 0.16 nM; in assay [1], 3 nM; in [11], 0.33 nM; in assay [12] it was 0.27 nM; in [13], 0.63 nM.

In assay [3], porcine C2-NPY (peptide) had an EC50, inhibition of forskolin-stimulated cAMP accumulation, 293 cells of 240 nM. The Ki in assay [14] was determined as 300 nM; in assay [4], 79 nM; in assay [5], 3.5 nM; in [6], 120 nM; in [8], 470 nM; in assay [9], 140 nM. For the same substance, the inhibition constant (Ki) in assay [10] stood at 2.6 nM; in assay [1] it was 22 nM; in [12], 370 nM; in assay [15], 260 nM; in assay [16] it was 260 nM; in [13], 220 nM.

The substance W(nor-L)RF-amide (peptide) displayed a Ki in [11] of 8700 nM.

By IC50 is commonly meant the concentration needed to halve the response being measured. As to “human [Leu^31, Pro^34]NPY (from UniProt P01303 29-64) (peptide)”, the % NPY-produced displacement in assay [17] worked out at 56%; in assay [18], 44%; in [19], 73%; in [20], 27%. Moreover, the IC50 in assay [17] came to 340 nM; in assay [18], 0.21 nM; in assay [19], 250 nM; in [20] it was 0.38 nM.

In assay [21], “human NPY2-36 (from UniProt P01303 30-64) (peptide)” gave a % NPY-produced displacement of 100% and an IC50 of 2.3 nM. In addition, in [22], the % NPY-produced displacement was found to be 100% and the IC50 amounted to 1.2 nM.

On to “rat/human NPY (from UniProt P01303 29-64) (peptide)”, for which, in assay [21], the % NPY-produced displacement was 100% and the IC50 turned out to be 0.82 nM. In assay [22], this substance came in with a % NPY-produced displacement of 100%.

With “human PP (from UniProt P01298 30-65) (peptide)”, in [21], the % NPY-produced displacement was 20%.

In assay [1], “porcine NPY3-36, P01304 12-45 (peptide; other documents disagree on this pair)” returned a Ki of 36 nM.

For the substance “human NPY2-36, P01303 30-64 (peptide; other documents disagree on this pair)”, the Ki in assay [1] was found to be 5 nM.

In turn, “human PYY (from UniProt P10082 29-64) (peptide)” registered a % NPY-produced displacement in [21] of 100%. Besides, in [22], the % NPY-produced displacement was 100% and the IC50 turned out to be 0.29 nM.
